Among the data in the supplement of paper PMC10567573 are protein stability index values, retold here.

This series in a line: protein stability index of a GFP-peptide fusion (GPS, HEK-293T) (PSI 1-6); higher = more stable. The note with it: c terminus: a fixed tail appended.

± gives the standard deviation.
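Note: 24-mer peptide tiles fused after GFP, lentivirally expressed, FACS-sorted into six equal bins by GFP/DsRed ratio, decoded by Illumina sequencing, PSI is the read-weighted mean bin number.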

As to YIFRVANHQKDLFRRTDGRCLIWG [DHCR7], the protein stability index is, setting by setting: (treatment: DMSO) 2.77 ± 0.23; (treatment: MLN4924 1 uM, 8 h) 2.35 ± 0.41.

In the case of ESETRKAAKRMRLEIYQSSQDEPI [NOL4L], the protein stability index (treatment: DMSO) is 4.58 ± 0.071 and the protein stability index (treatment: MLN4924 1 uM, 8 h) came out at 4.65 ± 0.24.

For MEEGERSPLLSQETAGQKPLSVHR [TSPAN10], the protein stability index was 5.08 ± 0.11 (treatment: DMSO) and 5.02 ± 0.18 (treatment: MLN4924 1 uM, 8 h).

For FVDILESDLKDDDAVPPGMESLIS [CDC25B], the protein stability index is, setting by setting: (treatment: DMSO) 3.55 ± 0.64; (treatment: MLN4924 1 uM, 8 h) 3.94 ± 0.43.

Regarding MVDIIFHYPFLGAMGDHSKKKPGT [ISL2], the protein stability index was 2.34 ± 0.28 (treatment: DMSO) and 2.38 ± 0.61 (treatment: MLN4924 1 uM, 8 h).

GDQDPLSKIPFKILSGHEHAVSTC [WDR88] showed a protein stability index (treatment: DMSO) of 3.31 ± 0.23 and a protein stability index (treatment: MLN4924 1 uM, 8 h) of 3.78 ± 0.16.

For EVGSMKIQSGAWVCYQYPGYRGYQ [CRYBA1], the protein stability index worked out at 2.08 ± 0.24 (treatment: DMSO) and 2.32 ± 0.11 (treatment: MLN4924 1 uM, 8 h).

In the case of VCVFLSHGEGNHIYAYDAKIEIQT [CASP6], the protein stability index reads like this: (treatment: DMSO) 3.11 ± 0.26; (treatment: MLN4924 1 uM, 8 h) 2.75 ± 0.64.

For RKDKDVARLQDFQELELVLMISEN [ANKRD40], the protein stability index by setting is: (treatment: DMSO) 2.1 ± 0.47; (treatment: MLN4924 1 uM, 8 h) 2.13 ± 0.56.

For QSSADGSQPPKKKPKTTNIELQGV [RBBP5], the protein stability index reads like this: (treatment: DMSO) 5.09 ± 0.16; (treatment: MLN4924 1 uM, 8 h) 5.26 ± 0.36.

Turning to LRRKSPASGQGPMCNVKAPLGSPS [ADAMTS4], the protein stability index was 3.85 ± 0.2 (treatment: DMSO) and 3.86 ± 0.46 (treatment: MLN4924 1 uM, 8 h).

With SDWFNFHGHMCIAFELLGKNTFEF [CLK3], the protein stability index was 3 ± 0.3 (treatment: DMSO) and 2.94 ± 0.31 (treatment: MLN4924 1 uM, 8 h).

In the case of AVQDHGQPPLSATVTLTVAVADSI [PCDHGA10], the protein stability index was found to be 2.83 ± 0.22 (treatment: DMSO) and 2.98 ± 0.34 (treatment: MLN4924 1 uM, 8 h).

For the sequence DLEAKEVTPRTALLTWTEPPVRPA [TNXB], the protein stability index is, setting by setting: (treatment: DMSO) 4.61 ± 0.14; (treatment: MLN4924 1 uM, 8 h) 4.53 ± 0.23.

As for QAIIESCSRQFPEFQERARKRIRT [NOL4L], the protein stability index (treatment: DMSO) came out at 3.69 ± 0.27 and the protein stability index (treatment: MLN4924 1 uM, 8 h) is 4.09 ± 0.21.

VQSLCAKHGIEYQSKPLLSAFADI [FADS1]: the protein stability index by setting is: (treatment: DMSO) 2.31 ± 0.3; (treatment: MLN4924 1 uM, 8 h) 2.32 ± 0.26.

For the sequence MLATRNFSGGKSGGNKKSDGVKES [CAMK2A], the protein stability index reads like this: (treatment: DMSO) 4.51 ± 0.7; (treatment: MLN4924 1 uM, 8 h) 4.54 ± 0.12.

For the sequence LASLSFIDTVYSTAFAPKMIVDLL [OR4A15], the protein stability index is 2.66 ± 0.32 (treatment: DMSO) and 3.05 ± 0.34 (treatment: MLN4924 1 uM, 8 h).

Regarding DFSVSLKASGKNKHFKVQLVDNVY [NCK2], the protein stability index was 2.27 ± 0.25 (treatment: DMSO) and 2.25 ± 0.19 (treatment: MLN4924 1 uM, 8 h).

As for GSSETETEPPVALAPGPAPTRCLP [ESRRA], the protein stability index is 5.23 ± 0.28 (treatment: DMSO) and 5.16 ± 0.11 (treatment: MLN4924 1 uM, 8 h).

On to IVQGSSGAQGSGGGSTSAHYAVNS [CARM1], for which the protein stability index (treatment: MLN4924 1 uM, 8 h) turned out to be 3.98 ± 0.91.

KARVLRSKSLCHDEIENLLDSDHR [CDC25B]: the protein stability index is 4.4 ± 0.13 (treatment: DMSO) and 4.62 ± 0.15 (treatment: MLN4924 1 uM, 8 h).

With PSPPTSPPWGLGPGAGDPAPGIGP [MYCL], the protein stability index (treatment: DMSO) stood at 4.7 ± 0.18 and the protein stability index (treatment: MLN4924 1 uM, 8 h) came to 4.72 ± 0.069.
